Source: publication PMC6003418

Key:
SnLH3 [1] = assay: native gel or EMSA
SnLH3 [2] = assay: SAXS

## SnLH3 (natural protein)
SnLH3 [1]
  stoichiometry N: 3
SnLH3 [2]
  stoichiometry N: 3
